Broadly, the stoichiometry N is the number of molecules, sites or subunits per partner or assembly.

This is an account of results in doi:10.1101/2020.10.02.324624.

The test addresses AmvR (Acinetobacter baumannii ATCC17978). Briefly: SEC. Background: SEC sorts molecules by how far they enter the pores of the column.

As for AmvR (natural protein), the stoichiometry N was 2.
